Among the data in patent publication US20140120128A1 are SEAP reporter expression in HEK293 cells, screening 1 and SEAP reporter expression in HEK293 cells, screening 2 values, retold here.

Common to all, as to assay: cell-based or functional assay
The target in assay [1] is human TLR5 expressed on HEK293 cells (human) (UniProt O60602).
In assay [2] the target is human TLR7 expressed on HEK293 cells (human) (UniProt Q9NYK1).
The target of assay [3] is human TLR3 expressed on HEK293 cells (human) (UniProt O15455).
Assay [4] deals with T1, human TLR9 expressed on HEK293 cells (human) (UniProt Q9NR96).
T1 sequence: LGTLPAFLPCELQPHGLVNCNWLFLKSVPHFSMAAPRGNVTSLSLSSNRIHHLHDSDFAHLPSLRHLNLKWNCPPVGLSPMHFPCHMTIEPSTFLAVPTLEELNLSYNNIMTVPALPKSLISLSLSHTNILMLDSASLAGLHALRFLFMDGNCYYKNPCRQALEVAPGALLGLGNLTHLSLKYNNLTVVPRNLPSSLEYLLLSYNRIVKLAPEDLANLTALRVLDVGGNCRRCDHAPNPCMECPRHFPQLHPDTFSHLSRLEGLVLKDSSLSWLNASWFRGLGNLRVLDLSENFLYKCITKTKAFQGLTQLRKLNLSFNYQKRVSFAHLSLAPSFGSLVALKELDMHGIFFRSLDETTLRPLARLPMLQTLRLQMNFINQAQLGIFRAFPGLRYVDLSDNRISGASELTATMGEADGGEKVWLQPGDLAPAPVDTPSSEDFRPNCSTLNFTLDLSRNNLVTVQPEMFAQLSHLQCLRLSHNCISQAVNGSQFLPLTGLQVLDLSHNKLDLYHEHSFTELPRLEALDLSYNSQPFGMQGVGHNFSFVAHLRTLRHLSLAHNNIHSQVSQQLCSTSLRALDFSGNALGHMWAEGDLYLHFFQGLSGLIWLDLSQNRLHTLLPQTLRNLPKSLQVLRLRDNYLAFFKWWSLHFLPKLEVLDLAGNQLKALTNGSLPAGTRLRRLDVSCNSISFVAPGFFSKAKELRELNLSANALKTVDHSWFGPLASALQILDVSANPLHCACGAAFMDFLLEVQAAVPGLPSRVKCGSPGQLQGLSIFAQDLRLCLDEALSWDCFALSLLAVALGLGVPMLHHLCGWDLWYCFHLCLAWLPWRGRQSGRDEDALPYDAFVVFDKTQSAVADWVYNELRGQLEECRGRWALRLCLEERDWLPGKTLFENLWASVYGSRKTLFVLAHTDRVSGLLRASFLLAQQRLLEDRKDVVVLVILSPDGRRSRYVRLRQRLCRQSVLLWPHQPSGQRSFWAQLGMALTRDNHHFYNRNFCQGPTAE

In assay [5] the target is human TLR2 expressed on HEK293 cells (human) (UniProt O60603).
Sequence of human TLR2 expressed on HEK293 cells (human) (O60603 21-784): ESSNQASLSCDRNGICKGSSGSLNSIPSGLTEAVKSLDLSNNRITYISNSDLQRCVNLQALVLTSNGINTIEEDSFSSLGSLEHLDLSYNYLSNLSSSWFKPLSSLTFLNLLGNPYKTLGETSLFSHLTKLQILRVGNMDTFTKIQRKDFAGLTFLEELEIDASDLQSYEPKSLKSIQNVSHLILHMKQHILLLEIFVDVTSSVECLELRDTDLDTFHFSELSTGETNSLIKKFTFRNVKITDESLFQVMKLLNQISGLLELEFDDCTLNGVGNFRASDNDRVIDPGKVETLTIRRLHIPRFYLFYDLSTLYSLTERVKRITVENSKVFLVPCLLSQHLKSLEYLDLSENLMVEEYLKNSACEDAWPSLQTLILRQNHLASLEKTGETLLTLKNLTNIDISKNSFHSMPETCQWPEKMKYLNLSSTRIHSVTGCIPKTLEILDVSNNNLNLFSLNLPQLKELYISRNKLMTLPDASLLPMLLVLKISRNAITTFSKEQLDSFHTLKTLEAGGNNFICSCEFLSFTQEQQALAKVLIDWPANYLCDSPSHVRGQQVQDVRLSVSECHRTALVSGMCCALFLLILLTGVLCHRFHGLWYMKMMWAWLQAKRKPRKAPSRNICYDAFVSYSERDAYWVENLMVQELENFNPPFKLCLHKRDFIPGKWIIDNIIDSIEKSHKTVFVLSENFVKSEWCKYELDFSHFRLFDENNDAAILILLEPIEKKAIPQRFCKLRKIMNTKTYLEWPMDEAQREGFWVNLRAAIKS
Assay [6] addresses human TLR4 (MD2-CD14) expressed on HEK293 cells (human) (UniProt O00206).
In assay [7] the target is T2, human TLR8 expressed on HEK293 cells (human) (UniProt Q9NR97).
T2 sequence: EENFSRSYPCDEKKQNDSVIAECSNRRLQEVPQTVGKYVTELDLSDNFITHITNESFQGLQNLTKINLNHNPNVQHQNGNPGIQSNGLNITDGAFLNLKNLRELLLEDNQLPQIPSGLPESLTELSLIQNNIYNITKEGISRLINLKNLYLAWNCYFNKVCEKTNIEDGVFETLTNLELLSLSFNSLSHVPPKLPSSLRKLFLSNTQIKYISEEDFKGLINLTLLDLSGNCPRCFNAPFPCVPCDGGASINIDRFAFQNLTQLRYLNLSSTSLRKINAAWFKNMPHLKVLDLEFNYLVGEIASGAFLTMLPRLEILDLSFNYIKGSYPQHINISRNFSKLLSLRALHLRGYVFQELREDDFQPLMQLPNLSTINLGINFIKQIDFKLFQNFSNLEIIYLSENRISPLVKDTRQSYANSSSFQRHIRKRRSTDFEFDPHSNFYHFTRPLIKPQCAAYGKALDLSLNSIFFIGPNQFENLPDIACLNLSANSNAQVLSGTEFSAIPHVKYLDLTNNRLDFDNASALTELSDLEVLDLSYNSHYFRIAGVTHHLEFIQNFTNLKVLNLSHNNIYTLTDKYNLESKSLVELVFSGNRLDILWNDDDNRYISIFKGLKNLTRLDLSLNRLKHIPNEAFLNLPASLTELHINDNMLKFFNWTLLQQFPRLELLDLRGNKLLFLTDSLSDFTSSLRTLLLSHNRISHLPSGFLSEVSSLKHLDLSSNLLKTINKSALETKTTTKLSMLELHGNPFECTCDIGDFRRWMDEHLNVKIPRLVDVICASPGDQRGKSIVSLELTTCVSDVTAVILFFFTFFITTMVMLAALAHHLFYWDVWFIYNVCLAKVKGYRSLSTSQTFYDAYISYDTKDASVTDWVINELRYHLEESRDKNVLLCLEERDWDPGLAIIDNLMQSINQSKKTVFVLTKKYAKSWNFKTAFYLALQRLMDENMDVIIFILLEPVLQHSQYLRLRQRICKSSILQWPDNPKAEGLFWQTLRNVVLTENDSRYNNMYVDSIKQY

Sequence of human TLR4 (MD2-CD14) expressed on HEK293 cells (human) (O00206 24-839 limits assumed, chain 1 of 3): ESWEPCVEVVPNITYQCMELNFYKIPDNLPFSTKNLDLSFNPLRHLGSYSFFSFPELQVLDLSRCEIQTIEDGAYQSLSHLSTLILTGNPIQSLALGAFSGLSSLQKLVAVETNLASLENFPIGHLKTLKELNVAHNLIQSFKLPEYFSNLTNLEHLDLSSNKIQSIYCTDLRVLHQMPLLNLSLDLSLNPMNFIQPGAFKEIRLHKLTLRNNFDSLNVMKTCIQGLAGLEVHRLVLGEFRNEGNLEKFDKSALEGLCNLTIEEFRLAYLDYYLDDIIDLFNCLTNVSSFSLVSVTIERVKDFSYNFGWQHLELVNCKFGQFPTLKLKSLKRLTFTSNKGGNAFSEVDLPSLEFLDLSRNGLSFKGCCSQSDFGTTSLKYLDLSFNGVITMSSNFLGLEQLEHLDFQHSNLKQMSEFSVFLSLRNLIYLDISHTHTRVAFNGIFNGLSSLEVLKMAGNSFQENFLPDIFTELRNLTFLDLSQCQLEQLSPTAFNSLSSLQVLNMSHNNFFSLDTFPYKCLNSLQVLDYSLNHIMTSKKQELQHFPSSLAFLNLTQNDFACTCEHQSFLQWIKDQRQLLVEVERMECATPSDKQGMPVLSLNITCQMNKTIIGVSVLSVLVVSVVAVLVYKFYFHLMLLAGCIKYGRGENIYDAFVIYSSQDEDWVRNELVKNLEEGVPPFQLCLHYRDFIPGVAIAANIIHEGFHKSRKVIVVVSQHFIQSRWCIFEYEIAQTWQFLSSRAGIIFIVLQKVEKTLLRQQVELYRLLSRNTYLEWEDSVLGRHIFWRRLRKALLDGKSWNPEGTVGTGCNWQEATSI
Sequence of human TLR4 (MD2-CD14) expressed on HEK293 cells (human) (Q9Y6Y9 19-160 limits assumed, chain 2 of 3, further chain): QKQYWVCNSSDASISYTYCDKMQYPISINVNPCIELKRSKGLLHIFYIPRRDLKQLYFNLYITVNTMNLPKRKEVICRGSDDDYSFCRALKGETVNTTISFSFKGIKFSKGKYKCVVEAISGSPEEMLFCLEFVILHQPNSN
Sequence of human TLR4 (MD2-CD14) expressed on HEK293 cells (human) (P08571 20-345 limits assumed, chain 3 of 3, further chain): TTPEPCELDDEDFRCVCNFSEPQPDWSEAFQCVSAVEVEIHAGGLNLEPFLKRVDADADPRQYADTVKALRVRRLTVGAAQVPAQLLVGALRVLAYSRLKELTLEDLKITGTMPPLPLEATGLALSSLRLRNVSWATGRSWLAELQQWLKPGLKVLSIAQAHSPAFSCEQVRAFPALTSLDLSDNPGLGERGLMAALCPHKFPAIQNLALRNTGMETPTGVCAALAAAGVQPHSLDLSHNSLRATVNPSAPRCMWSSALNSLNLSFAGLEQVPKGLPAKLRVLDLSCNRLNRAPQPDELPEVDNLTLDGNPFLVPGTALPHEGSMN
Sequence of human TLR7 expressed on HEK293 cells (human) (Q9NYK1 27-1049): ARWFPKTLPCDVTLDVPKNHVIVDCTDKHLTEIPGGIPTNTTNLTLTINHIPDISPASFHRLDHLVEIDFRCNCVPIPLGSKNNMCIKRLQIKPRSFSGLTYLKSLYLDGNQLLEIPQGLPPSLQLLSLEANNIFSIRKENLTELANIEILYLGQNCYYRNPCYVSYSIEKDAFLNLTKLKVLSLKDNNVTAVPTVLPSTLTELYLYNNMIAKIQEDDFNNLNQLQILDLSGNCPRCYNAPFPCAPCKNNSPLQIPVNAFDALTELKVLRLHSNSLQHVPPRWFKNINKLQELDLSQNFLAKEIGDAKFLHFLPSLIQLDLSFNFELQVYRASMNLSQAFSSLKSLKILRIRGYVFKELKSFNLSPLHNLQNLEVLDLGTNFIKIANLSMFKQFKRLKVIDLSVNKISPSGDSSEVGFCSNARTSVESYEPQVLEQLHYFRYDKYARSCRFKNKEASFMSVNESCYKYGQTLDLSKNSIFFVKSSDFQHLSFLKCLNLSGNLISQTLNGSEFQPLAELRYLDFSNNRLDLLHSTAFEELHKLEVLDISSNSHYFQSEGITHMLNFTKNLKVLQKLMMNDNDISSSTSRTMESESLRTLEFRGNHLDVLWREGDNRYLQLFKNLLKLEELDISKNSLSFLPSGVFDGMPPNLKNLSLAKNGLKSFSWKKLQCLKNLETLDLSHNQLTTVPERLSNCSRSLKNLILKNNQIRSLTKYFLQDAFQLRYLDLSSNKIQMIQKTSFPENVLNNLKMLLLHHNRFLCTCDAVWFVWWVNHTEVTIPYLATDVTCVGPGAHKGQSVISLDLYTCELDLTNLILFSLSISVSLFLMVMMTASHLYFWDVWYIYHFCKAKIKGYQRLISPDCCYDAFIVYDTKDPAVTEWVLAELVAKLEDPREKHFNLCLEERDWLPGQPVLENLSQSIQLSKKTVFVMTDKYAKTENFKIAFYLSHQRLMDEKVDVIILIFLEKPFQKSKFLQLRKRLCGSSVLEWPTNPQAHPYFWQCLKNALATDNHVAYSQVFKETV
Sequence of human TLR5 expressed on HEK293 cells (human) (O60602 21-858): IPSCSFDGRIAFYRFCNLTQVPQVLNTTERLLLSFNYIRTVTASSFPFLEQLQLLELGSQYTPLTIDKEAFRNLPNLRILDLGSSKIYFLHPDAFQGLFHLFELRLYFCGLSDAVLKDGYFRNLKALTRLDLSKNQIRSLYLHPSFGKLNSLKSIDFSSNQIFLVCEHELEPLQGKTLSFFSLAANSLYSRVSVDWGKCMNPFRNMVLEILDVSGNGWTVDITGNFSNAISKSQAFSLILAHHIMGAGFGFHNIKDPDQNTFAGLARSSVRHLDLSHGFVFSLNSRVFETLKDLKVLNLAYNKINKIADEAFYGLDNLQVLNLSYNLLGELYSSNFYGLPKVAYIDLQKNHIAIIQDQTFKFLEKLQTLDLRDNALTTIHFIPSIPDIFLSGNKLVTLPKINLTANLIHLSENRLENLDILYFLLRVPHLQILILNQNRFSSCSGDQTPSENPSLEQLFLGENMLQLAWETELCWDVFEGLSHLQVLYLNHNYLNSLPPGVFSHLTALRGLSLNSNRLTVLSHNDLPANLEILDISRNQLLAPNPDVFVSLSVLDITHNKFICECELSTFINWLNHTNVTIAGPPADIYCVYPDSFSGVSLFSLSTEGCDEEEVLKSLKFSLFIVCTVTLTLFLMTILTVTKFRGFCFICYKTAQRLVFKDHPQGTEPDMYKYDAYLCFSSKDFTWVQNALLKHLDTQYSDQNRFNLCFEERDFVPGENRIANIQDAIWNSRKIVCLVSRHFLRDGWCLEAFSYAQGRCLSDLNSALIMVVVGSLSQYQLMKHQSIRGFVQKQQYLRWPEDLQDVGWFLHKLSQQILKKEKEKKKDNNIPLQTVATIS

Take “wild type YscF (from UniProt O68691 1-87)”: the SEAP reporter expression in HEK293 cells, screening 1 came out at 0.136 in assay [1]; 0.095 in assay [2]; 0.1 in assay [3]; 0.075 in assay [4]; 0.283 in assay [5]; 0.98 in assay [6]. This substance also gave an SEAP reporter expression in HEK293 cells, screening 1 in assay [7] of 0.096. Further, the SEAP reporter expression in HEK293 cells, screening 2 in assay [1] was 0.139; in assay [2] it was 0.094; in assay [3] it was 0.093; in assay [4], 0.074; in assay [5], 0.272; in assay [6] it was 0.861. This substance also returned an SEAP reporter expression in HEK293 cells, screening 2 in assay [7] of 0.095.
